“Also recorded” adds a separate entry of the source. Numbered stars: 1 amine (or outer) side, 2 acyl side, 3 side chain; on linkers, the order of the positions; unused ones are H or OH. Square brackets hold non-standard residues; d marks the D form. Peptide text beside a SMILES is read from it. Cys(Me) = S-methylcysteine, cys(Me), CSC[C@H](N[*:1])C(=O)[*:2]; Pen = CC(C)(S)[C@H](N)C(=O)O; hLeu = CC(C)CC[C@H](N)C(=O)O; hCys = N[C@@H](CCS)C(=O)O; Nle = CCCC[C@H](N)C(=O)O; Nva = CCC[C@H](N)C(=O)O; Aib = CC(C)(N)C(=O)O
How the values were obtained:
HIF-1α PAS-B (238-349) = molecular target: T1, HIF-1α PAS-B (238-349) (Homo sapiens, UniProt Q16665); test: MST binding to recombinantly expressed HIF-1α PAS-B domain; details: for affinity for the PAS-B domain of HIF-1α compared with cyclo-CLLFVY: compared with previously reported HIF-1 dimerization inhibitor
T1 construct: human HIF-1α PAS-B (238-349); His tag; made in house; host or cells: E. coli BL21(DE3)-Rosetta, pET28a
Method: (§1) Genes encoding for human HIF-1α PAS-B (238-349) and HIF-2α PAS-B (240-350) were each cloned into pET28a vectors at the BamHI and SacI restriction sites. The recombinant plasmids were next transformed into BL21(DE3)-Rosetta chemically competent cells. Cells were grown in LB media at 37° C. to an OD600 of 0.7, after which expression was induced by addition of 0.5 mM IPTG. Following overnight expression at 16° C., cells were pelleted and resuspended in buffer containing 50 mM Tris, 150 mM NaCl, 5% glycerol, 1 mM TCEP, protease inhibitors (Roche) and 20 mM imidazole, pH 8.0. Cells were lysed by sonication, and the supernatant applied to a 1 mL Histrap FF affinity column. The His-tagged protein of interest was eluted with buffer containing 50 mM Tris, 150 mM NaCl, 5% glycerol, 1 mM TCEP and 250 mM imidazole. The protein was then loaded onto a HiLoad 16/600 superdex 75 pg size exclusion column (GE healthcare) equilibrated with assay buffer containing 50 mM Tris, 150 mM NaCl, 5% glycerol and 1 mM TCEP, pH 8.0. Fractions containing the desired protein were flash-frozen and stored at −80° C. prior to use.
(§2) HIF-α proteins were labelled with Monolith NT-647 labelling dye (Nanotemper Technologies GmbH) according to the manufacturer's instructions. MST experiments were performed on a Monolith NT.115 system (Nanotemper Technologies GmbH), in assay buffer containing 50 nM labelled protein, 10% DMSO and 0.05% TWEEN-20. MST measurements were performed using 50% LED and 50% MST power.

HIF-2α PAS-B = test: 2α (μM)
Source text: Table printed on a drawing sheet, Figure 3 (part 1 of 3) A
Head of the field: 2α (μM)
The patent's description of the figure: FIG. 3

HIF-2α PAS-B (240-350) = molecular target: T2, HIF-2α PAS-B (240-350) (Homo sapiens, UniProt Q99814); test: MST binding to recombinantly expressed HIF-2α PAS-B domain; details: MST, recombinant HIF-2α PAS-B domain; read-out: Kd / binding affinity for 2α PAS-B
T2 construct: HIF-2α PAS-B (240-350); His tag; made in house; host or cells: E. coli BL21(DE3)-Rosetta, pET28a
Method: The three lead peptides were next chemically synthesised, using Fmoc-solid phase peptide synthesis methodology, followed by in-solution cyclisation under high dilution conditions.
as §1, with “use. […]” for “use.”

[1] = molecular target: T3, human HIF-1α PAS-B (238-349), recombinant, His-tagged (human, UniProt Q16665 238-349, labelled with Monolith NT-647 dye for MST); test: MST, HIF-1α PAS-B; bar chart of Kd (µM) for residues at position 1 of CRLIIF
T3 construct: range 238-349; Expressed in E. coli BL21(DE3)-Rosetta from pET28a; also called HIF-1α PAS-B domain; PAS-B domain of HIF-1α; not shown: His tag from pET28a vector (BamHI/SacI cloning)

[2] = molecular target: T3, human HIF-1α PAS-B (238-349), …; test: MST, HIF-1α PAS-B; bar chart of Kd (µM) for residues at position 5 of CRLIIF
[3] = molecular target: T3, human HIF-1α PAS-B (238-349), …; test: MST, NT-647-labelled recombinant 1α PAS-B
Method: as §2

[4] = molecular target: T4, human HIF-2α PAS-B (240-350), recombinant, His-tagged (human, UniProt Q99814 240-350, labelled with Monolith NT-647 dye for MST); test: MST, HIF-2α PAS-B (column 2α (µM))
T4 construct: range 240-350; Expressed in E. coli BL21(DE3)-Rosetta from pET28a; also called PAS-B domain of HIF-2α; not shown: His tag from pET28a vector (BamHI/SacI cloning)

[5] = molecular target: T3, human HIF-1α PAS-B (238-349), …; test: MST, HIF-1α PAS-B (column 1α (µM))

T1 sequence (Q16665 238-349): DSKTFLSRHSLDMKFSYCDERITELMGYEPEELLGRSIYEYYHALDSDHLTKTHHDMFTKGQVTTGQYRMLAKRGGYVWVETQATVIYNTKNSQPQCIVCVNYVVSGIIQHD
T3 sequence (Q16665 238-349): as above
T4 sequence (Q99814 240-350): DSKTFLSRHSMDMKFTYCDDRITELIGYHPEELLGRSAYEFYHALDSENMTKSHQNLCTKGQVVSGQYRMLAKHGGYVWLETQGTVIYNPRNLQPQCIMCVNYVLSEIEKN
T2 sequence (Q99814 240-350): as above

With `CC[C@H](C)[C@@H]1NC(=O)[C@H](CC(C)C)NC(=O)[C@H](CCCNC(=N)N)NC(=O)[C@H](C)NC(=O)[C@H](Cc2ccccc2)NC(=O)[C@H]([C@@H](C)CC)NC1=O` [Cyclic peptide #9, cyclo-ala agr leu ile ile phe] (cyclo(ARLIIF)) the “Kd / binding affinity for 1α PAS-B” value (HIF-1α PAS-B (238-349); MST, recombinant HIF-1α PAS-B domain) was “could not be determined”.

With `CC[C@H](C)[C@@H]1NC(=O)[C@H](CC(C)C)NC(=O)[C@H](CCCCN)NC(=O)[C@H](CS)NC(=O)[C@H](Cc2ccccc2)NC(=O)[C@H]([C@@H](C)CC)NC1=O` [Cyclic peptide #1, cyclo-cys lys leu ile ile phe] (cyclo(CKLIIF)) the “selectivity between 1α and 2α PAS-B domains (in words)” value (HIF-1α PAS-B (238-349); MST, 1α vs 2α PAS-B) was “little difference in selectivity” and the “affinity for the PAS-B domain of HIF-1α compared with cyclo-CLLFVY” value (HIF-1α PAS-B (238-349)) was “improved affinities”.

Molecule `CC[C@H](C)[C@@H]1NC(=O)[C@H](CC(C)C)NC(=O)[C@H](CCCNC(=N)N)NC(=O)[C@H](CS)NC(=O)[C@H](Cc2ccccc2)NC(=O)[C@H](C)NC1=O` [compound 10, CRLIAF] has a Kd (HIF-2α PAS-B) of 269 ± 7 µM.

`CC[C@H](C)[C@@H]1NC(=O)[C@H](CC(C)C)NC(=O)[C@H](CC(C)C)NC(=O)[C@H](CCCNC(=N)N)NC(=O)[C@H](CS)NC(=O)[C@H](Cc2ccccc2)NC1=O` [Cyclic peptide #2, cyclo-cys arg leu leu ile phe] (cyclo(CRLLIF)) was tested, and the Kd (HIF-1α PAS-B (238-349); MST, recombinant HIF-1α PAS-B domain, read-out: Kd / binding affinity for 1α PAS-B) was 10 to 14 µM, the “affinity for the PAS-B domain of HIF-1α compared with cyclo-CLLFVY” value (HIF-1α PAS-B (238-349)) was “improved affinities” and the Kd (HIF-2α PAS-B (240-350)) was 10 to 14 µM.

With `CC[C@H](C)[C@@H]1NC(=O)[C@H](CC(C)C)NC(=O)[C@H](CCCNC(=N)N)NC(=O)[C@H](CS)NC(=O)[C@H](Cc2ccccc2)NC(=O)C(C)(C)NC1=O` [Cyclic peptide #38, cyclo-cys agr leu ile (Aib) phe (Aib)F] (cyclo([Aib]FCRLI)) the “affinity relative to parent peptide CRLIIF (in words)” value (HIF-1α PAS-B (238-349); MST, SAR substitutions, listed as Aib derivative) was “weaker Kd than the parent compound; also recorded: markedly improved affinity over both the alanine and aminobutyric acid”.

`CC[C@H](C)[C@@H]1NC(=O)[C@H](C)NC(=O)[C@H](CCCNC(=N)N)NC(=O)[C@H](CS)NC(=O)[C@H](Cc2ccccc2)NC(=O)[C@H]([C@@H](C)CC)NC1=O` [compound 8, CRAIIF] (cyclo(CRAIIF)) was tested, and the Kd (HIF-2α PAS-B) was 52 ± 7 µM.

B1: C(Me) (peptide)
cyclic peptide: cyclo([Cys(Me)]RLIIF)
SMILES: CC[C@H](C)[C@@H]1NC(=O)[C@H](CC(C)C)NC(=O)[C@H](CCCNC(=N)N)NC(=O)[C@H](CSC)NC(=O)[C@H](Cc2ccccc2)NC(=O)[C@H]([C@@H](C)CC)NC1=O
notes: Bar 'C(Me)' in the chart of C1 substitutions of CRLIIF; Comparative peptide; also called Cyclo-C(Me)RLIIF; cyclo-(methyl)cys arg leu ile ile phe
In the case of B1, the Kd [1] is reported as 62 µM.

B2: cyclo-cys arg leu ile (n-leu) phe (peptide)
peptide: cyclo(CRLI[Nle]F)
SMILES: CCCC[C@@H]1NC(=O)[C@H]([C@@H](C)CC)NC(=O)[C@H](CC(C)C)NC(=O)[C@H](CCCNC(=N)N)NC(=O)[C@H](CS)NC(=O)[C@H](Cc2ccccc2)NC1=O
notes: also called Cyclo-CRLI(Nle)F; cyclic peptide #34
B2: binds [2].

B3: cyclo-cys arg leu ile h-leu phe (peptide)
peptide: cyclo(CRLI[hLeu]F)
SMILES: CC[C@H](C)[C@@H]1NC(=O)[C@H](CC(C)C)NC(=O)[C@H](CCCNC(=N)N)NC(=O)[C@H](CS)NC(=O)[C@H](Cc2ccccc2)NC(=O)[C@H](CCC(C)C)NC1=O
notes: also called Cyclo-CRLI(hL)F; cyclic peptide #33
B3: binds [2].

CRLIIF (head-to-tail cyclic (cyclo-), also called CRLIIF; cyclic peptide #4) [cyclo-cys arg leu ile ile phe] was tested, and the Kd [3] was 3.8 µM, the “fold greater affinity than CKLLIF” value [3] was ~3 fold and the Kd [4] was 11 µM. The Kd [1] was 3.9 µM.

B4: cyclo-cys arg leu ile val phe (peptide)
peptide: CRLIVF
modifications: head-to-tail cyclic (cyclo-)
notes: also called Cyclo-CRLIVF; cyclic peptide #37
B4: binds [2].

B5: T (peptide)
cyclic peptide: TRLIIF
modifications: head-to-tail cyclised
notes: Bar 'T' in the chart of C1 substitutions of CRLIIF; Comparative peptide; also called Cyclo-TRLIIF; cyclo-thr arg leu ile ile phe
B5 was tested, and the Kd [1] was > 200 µM.

With CRLIAF (head-to-tail cyclic (cyclo-), also called CRLIAF; cyclic peptide #7) [cyclo-cys arg leu ile ala phe] the Kd [5] was 111 µM and the Kd [4] was 269 µM.

Work on CRLIIA (head-to-tail cyclic (cyclo-), also called CRLIIA; cyclic peptide #8) [cyclo-cys arg leu ile ile ala] yielded a Kd [5] of 91 µM and a Kd [4] of 373 µM.

With CRLAIF (head-to-tail cyclic (cyclo-), also called CRLAIF; cyclic peptide #6) [cyclo-cys arg leu ala ile phe] the Kd [5] was 13 µM and the Kd [4] was 61 µM.

For ARLIIF (head-to-tail cyclic (cyclo-), also called ARLIIF; cyclic peptide #9) [cyclo-ala arg leu ile ile phe], the Kd [1] was > 200 µM.

CRAIIF (head-to-tail cyclic (cyclo-), also called CRAIIF; cyclic peptide #11) [cyclo-cys arg ala ile ile phe] showed a Kd [5] of 53 µM and a Kd [4] of 52 µM.

B6: M (peptide)
cyclic peptide: MRLIIF
modifications: head-to-tail cyclised
notes: Bar 'M' in the chart of C1 substitutions of CRLIIF; Comparative peptide; also called Cyclo-MRLIIF; cyclo-met arg leu ile ile phe
B6 gave a Kd [1] of 108 µM.

B7: cyclo-cys arg leu ile leu phe (peptide)
peptide: CRLILF
modifications: head-to-tail cyclic (cyclo-)
notes: also called Cyclo-CRLILF; cyclic peptide #36
B7: binds [2].

In the case of CALIIF (head-to-tail cyclic (cyclo-), also called CALIIF; cyclic peptide #10) [cyclo-cys ala leu ile ile phe], the Kd [5] is reported as 30 µM and the Kd [4] is reported as 12 µM.

Molecule cyclo(CKLLIF) (not fully specified, also called CKLLIF; cyclic peptide #5) [cyclo-cys lys leu leu ile phe] has a Kd [3] of 12 µM.

B8: S (peptide)
cyclic peptide: SRLIIF
modifications: head-to-tail cyclised
notes: Bar 'S' in the chart of C1 substitutions of CRLIIF; Comparative peptide; also called Cyclo-SRLIIF; cyclo-ser arg leu ile ile phe
B8 gave a Kd [1] of 169 µM.

B9: cyclo-Pen arg leu ile ile phe (peptide)
peptide: cyclo([Pen]RLIIF)
SMILES: CC[C@H](C)[C@@H]1NC(=O)[C@H](CC(C)C)NC(=O)[C@H](CCCNC(=N)N)NC(=O)[C@H](C(C)(C)S)NC(=O)[C@H](Cc2ccccc2)NC(=O)[C@H]([C@@H](C)CC)NC1=O
notes: also called Cyclo-PenRLIIF; cyclic peptide #12d
Molecule B9 has a Kd [1] of 9 µM.

B10: cyclo-hcys arg leu ile ile phe (peptide)
peptide: cyclo([hCys]RLIIF)
SMILES: CC[C@H](C)[C@@H]1NC(=O)[C@H](CC(C)C)NC(=O)[C@H](CCCNC(=N)N)NC(=O)[C@H](CCS)NC(=O)[C@H](Cc2ccccc2)NC(=O)[C@H]([C@@H](C)CC)NC1=O
notes: also called Cyclo-hCRLIIF; cyclic peptide #13d
Molecule B10 has a Kd [1] of 44 µM.

B11: cyclo-cys arg leu ile (Nva) phe (peptide)
peptide: cyclo(CRLI[Nva]F)
SMILES: CCC[C@@H]1NC(=O)[C@H]([C@@H](C)CC)NC(=O)[C@H](CC(C)C)NC(=O)[C@H](CCCNC(=N)N)NC(=O)[C@H](CS)NC(=O)[C@H](Cc2ccccc2)NC1=O
notes: also called Cyclo-CRLI(Nva)F; cyclic peptide #35
B11: binds [2].
